Laboratory results: patent US20240270839A1
pKd: −log10 of the molar value.

Assays:
[1] = biological target: recombinant 6xHis tagged human CLDN18.2 (human); assay: SPR (Biacore T200), His tagged CLDN18.2 amine-coupled on CM5, antibody as analyte, 1:1 fit
[2] = biological target: recombinant 6xHis tagged human CLDN18.2 (human); assay: SPR (Biacore); same values as Table 30
[3] = biological target: human CLDN18.2 as used in the Octet assay (human); assay: Octet (BLI); format not described

IMAB362 (Zolbetuximab) (antibody)
pKd [1]: 6.94
pKd [2]: 6.94
pKd [3]: 8.80
